Target: the molecule itself
Assay: SEC-MALS

B1: rat RNF4 RING domain (residues 124-194) (domain or fragment, UniProt O88846 124-194, looked up)
chain: GTTGLRPSGTVSCPICMDGYSEIVQNGRLIVSTECGHVFCSQCLRDSLKNANTCPTCRKKINHKRYHPIYI
B1 was tested, and the “stoichiometry N” value was 2.

Reference: PMC3104014 (The Biochemical journal, 2010)
